Source: patent US20160362487A1 (Regeneron, published 2016)
Numbering of substitutions follows the chain as printed. Names and notes keep the numbering of the source.

T1: human IL-33 (R&D Systems, #3625-IL-010/CF) (human, UniProt O95760 112-270)
T1 construct: Commercial recombinant protein; also called hIL-33; interleukin-33
T1 sequence (looked up): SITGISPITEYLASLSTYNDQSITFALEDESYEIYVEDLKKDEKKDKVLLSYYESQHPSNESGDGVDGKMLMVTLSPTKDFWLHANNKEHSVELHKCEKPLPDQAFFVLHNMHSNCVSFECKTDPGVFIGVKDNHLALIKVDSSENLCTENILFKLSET

T2: cynomolgus monkey IL-33 expressed with a C-terminal hexahistidine tag (cynomolgus monkey)
T2 construct: also called MfIL-33-6His; Mf-IL-33-6His
T2 chain: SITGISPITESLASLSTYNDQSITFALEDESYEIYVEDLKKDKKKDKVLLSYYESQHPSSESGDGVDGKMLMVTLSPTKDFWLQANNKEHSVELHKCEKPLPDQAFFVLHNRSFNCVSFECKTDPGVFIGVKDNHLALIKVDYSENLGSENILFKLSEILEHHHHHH

T3: biotinylated hIL-33 protein (R&D systems, Cat #3625-IL/CF) (human, UniProt O95760 112-270, biotinylated (sites not given))
T3 construct: Same commercial protein as m21, biotin-labelled; also called biotin-hIL-33
T3 sequence (looked up): T1 sequence (looked up)

B1: H4H9662P (antibody, V domains shown)
VH: EVQLVESGGGLVQPGGSLRLSCAASGFTFSSYALTWVRQAPGKGLEWVSFISGSGGRPFYADSVKGRFTISRDNSKNMLYLQMNSLRAEDTAIYYCAKSLYTTSWYGGFDSWGQGTLVTVSS
VL: DIQMTQSPSSVSASVGDRVTITCRASQGVVSWLAWYQQKPGKAPKLLIYAASSLQSGVPSRFSGSGSGTDFTLTISSLQPEDFATYYCQQSNSFPFTLGPGTKVDIK
notes: Human IgG4 Fc (H4H)
B2: H4H9664P (antibody, human IgG4, V domains shown)
VH: QVQLVESGGGVVQPGRSLRLSCAASGFTFSSYGLHWVRQSPGKGLEWVALISYDGSNKYYADSVKGRFTISRDNSKNTLYLQMNSLRPEDTAGYFCAKSLYTTSWYGGFDYWGQGTLVTVSS
VL: B1 VL with V29I, V30R, K45N, S91A, F96P, L98F
notes: Human IgG4 Fc (H4H)
B3: H4H9667P (antibody, human IgG4, V domains shown)
VH: EVQLVESGGGLVQPGGSLRLSCAASGFTFSTYSMHWVRQAPGKGLEYVSTINNNGDTTYYADSVKGRFTISRDNSKNTLYLQLGSLRPEDMAVYYCARQTYTSSWYGGFDSWGQGTLVTVSS
VL: B1 VL with V29I, V30T, S53N, S76T, S91A, F94L, L98F
notes: Human IgG4 Fc (H4H)
B4: H4H9665P (antibody, human IgG4, V domains shown)
VH: EVQLVESGGGLVQPGGSLRLSCAASGFTFSNYAMTWVRQAPGKGLEWVSTISGSGDNTYYADSVQGRFTISRGHSKNTLYLQMNSLRAEDTAVYYCAKPTYSRSWYGAFDFWGQGTMVTVSS
VL: B1 VL with V29I, V30S, K45Q, S53R, S63W, S91A, S93N, L98F
notes: Human IgG4 Fc (H4H)
B5: H4H9663P (antibody, human IgG4, V domains shown)
VH: QVQLVQSGAEVKKPGASVKVSCKASGYTFTGHYMYWMRQAPGQGLEWMGWINPNSGGTNYAQKFQDRVTMTRDTSISTAYMELSRLRSDDTAVYYCARGRYGSSWYGGFEYWGQGTLVTVSS
VL: DIQMTQSPSSVSASVGDRVTITCRASQGITSWLAWYQQKPGKAPNLLIYAAASLQSGVPSRFSGSGSGTDFTLTISSLQPEDFTTYYCQQAYSLPLTFGGGTKVEIK
notes: Human IgG4 Fc (H4H)
B6: H4H9666P (antibody, human IgG4, V domains shown)
VH: QVQLVQSGAEVKKPGASVKVSCKASGYTFTSYGISWVRQAPGQGLEWMGWIRAYNGYTNYAQKFQGRVTMTTDTSTNTAYMELRTLNSDDTAVYYCARDRYSGSFHGNFDYWGQGTLVTVSS
VL: B5 VL with T30F, N45K, L46V, A52S, S53N, Q55E, T84A, Y92N
notes: Human IgG4 Fc (H4H)

These binders were tested against T1, human IL-33 (R&D Systems, …) (assay: SPR 25C, pH6.0 chase, mAb captured).
Description: (§1) Equilibrium dissociation constants (KD values) for IL-33 binding to purified anti-IL-33 monoclonal antibodies were determined using a real-time surface plasmon resonance biosensor using a Biacore 4000 instrument. The Biacore sensor surface was first derivatized by amine coupling with either a polyclonal rabbit anti-mouse antibody (GE, # BR-1008-38) or with a monoclonal mouse anti-human Fc antibody (GE, # BR-1008-39) to capture anti-IL-33 monoclonal antibodies expressed with mouse or with human IgG4 constant regions, respectively. All Biacore binding studies were performed in 0.01M ADA pH 7.4, 0.15M NaCl, 3 mM EDTA, and 0.05% v/v Surfactant Tween-20 (ABS-ET running buffer). […] Association of either hIL-33 or MfIL-33-6His to the captured monoclonal antibody was monitored for 4 minutes and their dissociation in ABS-ET running buffer was monitored for 10 minutes. The effect of reduced pH on the binding of each anti-IL-33 antibody to either hIL-33 or MfIL-33-6His was studied using an in-line pH chase assay format in 0.01M ADA pH 6.0, 0.15M NaCl, 3 mM EDTA, and 0.05% v/v Surfactant Tween-20 (ABS-ET pH6 buffer). To achieve this, association of either hIL-33 or MfIL-33-6His to the captured monoclonal antibody was monitored for 4 minutes in ABS-ET running buffer. Following a 30 second dissociation of either hIL-33 or MfIL-33-6His in ABS-ET running buffer, ABS-ET pH6 buffer was injected for 3 minutes, and the analyte dissociation under the low-pH conditions was measured. All the binding kinetic experiments were performed at both 25° C. and 37° C. Kinetic association (kₐ) and dissociation (kd) constants were determined by fitting the real-time sensorgrams to a 1:1 binding model using Scrubber 2.0c curve fitting software. Binding dissociation equilibrium constants (KD) and dissociative half-lives (t½) were calculated from the kinetic rate constants as: […]

koff [s⁻¹] | t½ [min] | t½ Ratio (pH 7.4/pH 6.0) | Binder
0.000826 | 14 | 3.3 | B1
0.000823 | 14 | 3.2 | B2
0.000566 | 20 | 2.2 | B3
0.00212 | 5 | 4.5 | B4
0.0011 | 11 | 2.7 | B5
0.00134 | 9 | 4.8 | B6

Biological target: T2, cynomolgus monkey IL-33 expressed with …
Experiment: SPR 25C, pH6.0 chase, mAb captured
Description: as §1

koff [s⁻¹] | t½ [min] | t½ Ratio (pH 7.4/pH 6.0) | Binder
0.000117 | 99 | 0.3 | B1
0.00048 | 24 | 0.3 | B2
0.000696 | 17 | 0.7 | B3
0.000753 | 15 | 1.3 | B4
0.000683 | 17 | 0.7 | B5
0.00809 | 1.4 | 2.3 | B6

What follows are binders tested against T4, pre-formed complex of hIL-33 and captured hST2-MMH (human, UniProt O95760 112-270) (assay: SPR 25C, 100 nM mAb over hIL-33/hST2-MMH complex).
T4 construct: Ligand-receptor complex on the sensor: hST2-MMH captured by anti-myc mAb and saturated with 100 nM hIL-33; also called hIL-33 pre-complexed with hST2-MMH
Description: The ability of anti-IL-33 antibodies to bind to a pre-formed complex of IL-33 with ST2 was tested using Biacore T-200 instrument equipped with a real-time surface plasmon resonance biosensor. The experiment was performed at 25° C. with a running buffer composed of 0.01M HEPES pH 7.4, 0.15M NaCl, 3 mM EDTA, and 0.05% v/v Surfactant Tween-20 (HBS-ET). […] The captured hST2-MMH surface was then saturated by injecting 100 nM of human IL-33 (hIL-33; R&D Systems, #3625-IL-010/CF) for 3 minutes followed by a 3 minute injection of a 100 nM solution of the anti-IL-33 monoclonal antibody. The real-time binding response was monitored during the entire course of the experiment, and the observed binding response at 3 minutes after injection of anti-IL-33 antibody to the pre-formed complex of hIL-33 and captured hST2-MMH was recorded and tabulated and shown in Table 7. No non-specific binding of anti-IL-33 monoclonal antibody to the anti-myc tag capture surface was observed.

Antibody Binding Response (RU) | Binder
0 | B1
-1 | B2
-1 | B3
0 | B4
-1 | B5
-1 | B6

Biological target: T2, cynomolgus monkey IL-33 expressed with …
Experiment: competition ELISA, 150 pM MfIL-33-6His on coated hST2-hFc
Description: (§2) The ability of anti-IL-33 antibodies to block either human IL-33 (hIL-33) or cynomologus monkey IL-33 binding to the human ST2 receptor was measured using a competition sandwich ELISA. […] The antibody/IL-33 mixtures were incubated for 1 hour at room temperature before they were transferred to the hST2-hFc-coated microtiter plates. After incubating for 1 hour at room temperature, the wells were then washed, and plate-bound biotin-hIL-33 was detected with streptavidin conjugated with horse-radish peroxidase (HRP) (Thermo Scientific, Cat # N200), and plate-bound MfIL-33-6His was detected with a HRP conjugated anti-His monoclonal antibody (Qiagen, #34460). All samples were developed with a TMB solution (BD biosciences, #51-2607KC) to produce a colorimetric reaction and then quenched by acidification with 1M sulfuric acid before measuring absorbance at 450 nm on a Victor X5 plate reader. Data analysis was performed using a sigmoidal dose-response model within Prism™ software. […] Percent blockade was calculated as the ratio of the reduction in signal observed in the presence of antibody relative to the difference between the signal with IL-33 alone and background (signal from HRP-conjugated secondary antibody or streptavidin alone). The absorbance measured for the constant concentration of biotin-hIL-33 or MfIL-33-6His alone is defined as 0% blocking and the absorbance measured for no added IL-33 is defined as 100% blocking.

% Maximum blocking [%] | IC50 [nM] | Binder
87 | 0.86 | B1
67 | 3.8 | B2
72 | 4.1 | B3
81 | 0.42 | B4
81 | 1.2 | B5
40 | 13 | B6

These binders were tested against T3, biotinylated hIL-33 protein (R&D …) (assay: competition ELISA, 30 pM biotin-hIL-33 on coated hST2-hFc).
Description: as §2

% Maximum blocking [%] | IC50 [nM] | Binder
77 | 1 | B1
73 | 0.3 | B2
78 | 0.41 | B3
55 | 0.87 | B4
74 | 0.5 | B5
71 | 0.6 | B6
